Among the data in patent US20210139542A1 are Kd values, retold here.

Assay [1] deals with HEWL-Hel-108 (hen) (UniProt P00698). Put plainly: BLI, mAb on AHC biosensor, 100 nM antigen. (In general: Biolayer interferometry detects binding as a change in optical thickness at a sensor tip.)
Assay [2] deals with HEWL-Full4 (hen) (UniProt P00698). Put plainly: BLI, mAb on AHC biosensor, 100 nM antigen, footnote d bounds the value.
Assay [3] has as its target HEWL-Full2 (hen) (UniProt P00698). The assay is described as above.
Assay [4] has as its target HEWL-Full8 (hen) (UniProt P00698). The experiment in a line: BLI, mAb on AHC biosensor, 100 nM antigen, footnote e bounds the value.
The target in assay [5] is HEWL-Full4 (hen) (UniProt P00698). Put plainly: BLI, mAb on AHC biosensor, 100 nM antigen, footnote c bounds the value.
Assay [6] has as its target HEWL-Full8 (hen) (UniProt P00698). Described as above.
The target in assay [7] is HEWL-Hel-108 (hen) (UniProt P00698). The assay is described as above.
For assay [8], the target named is HEWL-Full2 (hen) (UniProt P00698). Described as above.
Assay [9] has the same target. Put plainly: BLI, mAb on AHC biosensor, 100 nM antigen.

As usually defined, the Kd is the concentration at which binding is half-saturated. A higher Kd goes with lower affinity. For D1.3 (antibody), the Kd in the assay with HEWL-Hel-108 (hen) [1] amounted to 5.7 nM; with HEWL-Full4 (hen) [2], 7.9 nM; in the assay with HEWL-Full2 (hen) [3], 2.9 nM; in the assay with HEWL-Full8 (hen) [4], 12 nM.

For HyHEL-5 (antibody), the Kd in the assay with HEWL-Full4 (hen) [5] is 0.15 nM; with HEWL-Full8 (hen) [6], 0.18 nM; with HEWL-Hel-108 (hen) [7] it was 0.14 nM; with HEWL-Full2 (hen) [8], 0.14 nM.

As to HyHEL-10 (antibody), the Kd came out at 0.092 nM in the assay with HEWL-Hel-108 (hen) [1] and 150 nM with HEWL-Full2 (hen) [9].
